# Measurements from patent US20140087995A1 (published 2014).
# Numbered stars: 1 amine (or outer) side, 2 acyl side, 3 side chain; on linkers, the order of the positions; unused ones are H or OH. Bridge positions count the residues as written; N and C are the ends. Side chains are listed from the residue outwards. Ends that are not written are not given here. * marks the point of attachment. C20 diacid = O=C(O)CCCCCCCCCCCCCCCCCCC(=O)*; γGlu = O=C(O)[C@H](CCC(=O)[*:2])N[*:1]
# T1: rat calcitonin receptor (rat, UniProt P32214 25-516)
# T1 construct: whole, on cells; Used as membranes prepared from the transfected cells (Assay VIII); also called rCTR; rat calcitonin (a) receptor
# T1 sequence (looked up): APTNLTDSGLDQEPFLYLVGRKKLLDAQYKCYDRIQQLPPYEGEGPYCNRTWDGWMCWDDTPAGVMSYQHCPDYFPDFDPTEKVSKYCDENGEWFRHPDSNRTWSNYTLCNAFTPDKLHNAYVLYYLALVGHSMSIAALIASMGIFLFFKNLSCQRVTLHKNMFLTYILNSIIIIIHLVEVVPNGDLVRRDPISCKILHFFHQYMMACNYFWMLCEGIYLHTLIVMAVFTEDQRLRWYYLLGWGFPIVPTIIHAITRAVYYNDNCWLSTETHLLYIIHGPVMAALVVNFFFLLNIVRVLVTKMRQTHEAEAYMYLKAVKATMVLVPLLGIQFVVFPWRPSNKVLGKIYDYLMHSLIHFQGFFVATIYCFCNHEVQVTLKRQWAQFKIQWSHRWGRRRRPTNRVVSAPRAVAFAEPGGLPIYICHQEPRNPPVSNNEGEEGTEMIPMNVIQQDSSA
# T2: human calcitonin receptor (human, UniProt P30988 25-474)
# T2 construct: whole, on cells; Used as membranes prepared from the transfected cells (Assay VII); also called hCTR; hCT
# T2 sequence (looked up): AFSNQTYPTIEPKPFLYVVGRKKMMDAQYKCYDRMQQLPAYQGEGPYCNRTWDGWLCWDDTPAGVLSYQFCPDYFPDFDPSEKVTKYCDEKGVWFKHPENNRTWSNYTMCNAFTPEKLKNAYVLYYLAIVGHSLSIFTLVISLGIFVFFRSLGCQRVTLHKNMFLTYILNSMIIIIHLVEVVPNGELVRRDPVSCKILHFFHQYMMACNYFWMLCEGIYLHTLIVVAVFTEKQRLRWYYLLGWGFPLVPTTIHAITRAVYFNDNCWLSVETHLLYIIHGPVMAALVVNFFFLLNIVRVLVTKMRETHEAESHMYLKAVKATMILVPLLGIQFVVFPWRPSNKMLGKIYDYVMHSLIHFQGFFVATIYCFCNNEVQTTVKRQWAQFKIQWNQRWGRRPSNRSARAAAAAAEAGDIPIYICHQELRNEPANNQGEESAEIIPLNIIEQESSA
# T3: rat amylin receptor (rat calcitonin receptor + rat RAMP 3) (rat, UniProt P32214 25-516; Q9JJ73 23-147)
# T3 construct: whole, on cells; Used as membranes prepared from the transfected cells (Assay VI); also called rAmylin-R; rat amylin 3(a) receptor
# T3 sequence (looked up) 1: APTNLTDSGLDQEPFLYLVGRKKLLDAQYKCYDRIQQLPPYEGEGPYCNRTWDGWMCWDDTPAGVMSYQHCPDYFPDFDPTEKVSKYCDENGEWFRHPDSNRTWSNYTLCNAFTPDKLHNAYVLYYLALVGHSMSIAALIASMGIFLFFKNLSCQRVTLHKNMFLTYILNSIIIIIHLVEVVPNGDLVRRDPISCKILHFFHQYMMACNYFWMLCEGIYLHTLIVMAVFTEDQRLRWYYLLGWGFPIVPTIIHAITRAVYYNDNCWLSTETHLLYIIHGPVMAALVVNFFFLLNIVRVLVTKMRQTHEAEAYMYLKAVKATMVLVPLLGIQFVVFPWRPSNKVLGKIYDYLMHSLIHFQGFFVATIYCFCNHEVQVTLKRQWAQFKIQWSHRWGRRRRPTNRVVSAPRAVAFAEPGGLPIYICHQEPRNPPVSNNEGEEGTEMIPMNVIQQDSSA
# T3 sequence (looked up) 2: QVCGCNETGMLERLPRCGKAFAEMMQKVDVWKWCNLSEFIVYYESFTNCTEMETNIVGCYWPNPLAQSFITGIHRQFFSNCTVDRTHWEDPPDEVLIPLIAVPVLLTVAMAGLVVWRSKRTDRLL
# Assays:
# rat calcitonin receptor [1] = target: T1, rat calcitonin receptor; assay: ratio of IC50 on rat calcitonin receptor (Assay VIII) to IC50 on rat amylin receptor (Assay VI)
# [2] = target: T2, human calcitonin receptor; assay: ratio of IC50 on human calcitonin receptor (Assay VII) to IC50 on human amylin receptor (Assay V)
# Description: The resulting pellet was resuspended, homogenized and centrifuged (20.000 rpm, 15 min) in a buffer containing 20 mM Na-HEPES and 0.1 mM EDTA (pH 7.4, buffer 2). The resulting pellet was resuspended in buffer 2 and protein concentration was measured (BCA protein Assay, Pierce). The homogenate was kept cold during the whole procedure. The membranes were kept at −80° C. until use. The assay was performed in a 384 well Optiplate (PerkinElmer) in a total volume of 40 ul. Membranes were mixed with SPA beads. Final concentration of membranes 35 ng/μL final and SPA beads was 0.05 mg/well. Test-compounds were dissolved in DMSO and further diluted in assay buffer (50 mM Hepes, pH 7.4, 1 mM CaCl2, 5 mM MgCl₂, 0.1% OA and 0.02% Tween20). […] The final mixture was incubated with shaking at 400 rpm for 120 min at 25° C. prior to centrifugation (1500 rpm, 10 min). Samples were analyzed on TopCounter™ (Packard). The IC₅₀ was calculated using (one site binding competition analysis) GraphPad Prism5 as a measure of receptor affinity.
# Membranes were prepared in the following way; the cells were rinsed with PBS and incubated with Versene for approximately 5 min before harvesting. The cells were flushed with PBS and the cell-suspension was centrifuged for 5 min at 1000 rpm. Cells were homogenized (Ultrathurrax) in a buffer containing 20 mM Na-HEPES and 10 mM EDTA (pH 7.4) and centrifuged at 20.000 rpm for 15 min. The resulting pellet was resuspended, homogenized and centrifuged (20.000 rpm, 15 min) in a buffer containing 20 mM Na-HEPES and 0.1 mM EDTA (pH 7.4, buffer 2). The resulting pellet was resuspended in buffer 2 and protein concentration was measured (BCA protein Assay, Pierce). The homogenate was kept cold during the whole procedure. The membranes were kept at −80° C. until use. Assay was performed in a 384 well Optiplate (PerkinElmer) in a total volume of 40 ul. Membranes were mixed with SPA beads.
# rat calcitonin receptor [3] = target: T1, rat calcitonin receptor; assay: SPA competition binding, displacement of 125I-calcitonin from membranes of BHK tk'ts 13 cells transfected with rat calcitonin receptor (Assay VIII)
# [4] = target: T3, rat amylin receptor (rat calcitonin …); assay: SPA competition binding, displacement of 125I-rat amylin from membranes of BHK tk'ts 13 cells transfected with rat calcitonin receptor + rat RAMP 3 (Assay VI)
Binder,Ratio rCT/rAmylin binding (rat calcitonin receptor [1]),Ratio hCT/hAmylin binding [2],IC50 (rat calcitonin receptor [3]) [nM],IC50 [4] [nM]
"K([γGlu-γGlu-C20 diacid])CNTATCATQRLANFLRHSSPNFGAIPSSTPVGPRTY-NH2 (disulfide 2-7; N-terminus assumed; SMILES CC[C@H](C)[C@H](NC(=O)[C@H](C)NC(=O)CNC(=O)[C@H](Cc1ccccc1)NC(=O)[C@H](CC(N)=O)NC(=O)[C@@H]1CCCN1C(=O)[C@H](CO)NC(=O)[C@H](CO)NC(=O)[C@H](Cc1c[nH]cn1)NC(=O)[C@H](CCCNC(=N)N)NC(=O)[C@H](CC(C)C)NC(=O)[C@H](Cc1ccccc1)NC(=O)[C@H](CC(N)=O)NC(=O)[C@H](C)NC(=O)[C@H](CC(C)C)NC(=O)[C@H](CCCNC(=N)N)NC(=O)[C@H](CCC(N)=O)NC(=O)[C@@H](NC(=O)[C@H](C)NC(=O)[C@@H]1CSSC[C@H](NC(=O)[C@@H](N)CCCCNC(=O)CC[C@H](NC(=O)CC[C@H](NC(=O)CCCCCCCCCCCCCCCCCCC(=O)O)C(=O)O)C(=O)O)C(=O)N[C@@H](CC(N)=O)C(=O)N[C@@H]([C@@H](C)O)C(=O)N[C@@H](C)C(=O)N[C@@H]([C@@H](C)O)C(=O)N1)[C@@H](C)O)C(=O)N1CCC[C@H]1C(=O)N[C@@H](CO)C(=O)N[C@@H](CO)C(=O)N[C@H](C(=O)N1CCC[C@H]1C(=O)N[C@H](C(=O)NCC(=O)N1CCC[C@H]1C(=O)N[C@@H](CCCNC(=N)N)C(=O)N[C@H](C(=O)N[C@@H](Cc1ccc(O)cc1)C(N)=O)[C@@H](C)O)C(C)C)[C@@H](C)O, not restated for each compound)",137,48.6,52.4,0.381
"K([γGlu-γGlu-C20 diacid])CNTATCATQRLADFLRHSSPNFGAIPSSTNVGPETY-NH2 (disulfide 2-7, not restated for each compound)",98.5,49.8,31.9,0.324
"K([γGlu-γGlu-C20 diacid])CNTATCATQRLADFLRHSSPNFGAIPSSTNVGPRTY-NH2 (disulfide 2-7, not restated for each compound; also called compound 130)",240,280,223,0.93
"K([γGlu-γGlu-C20 diacid])CNTATCATQRLAEFLRHSSPNFGAILSSTPVGPETY-NH2 (disulfide 2-7 (inferred), not restated for each compound)",74.7,22.6,33.5,0.449
"K([γGlu-γGlu-C20 diacid])CNTATCATQRLASFLRHSSPNFGAIPSSTNVGPETY-NH2 (disulfide 2-7; N-terminus assumed; SMILES CC[C@H](C)[C@H](NC(=O)[C@H](C)NC(=O)CNC(=O)[C@H](Cc1ccccc1)NC(=O)[C@H](CC(N)=O)NC(=O)[C@@H]1CCCN1C(=O)[C@H](CO)NC(=O)[C@H](CO)NC(=O)[C@H](Cc1c[nH]cn1)NC(=O)[C@H](CCCNC(=N)N)NC(=O)[C@H](CC(C)C)NC(=O)[C@H](Cc1ccccc1)NC(=O)[C@H](CO)NC(=O)[C@H](C)NC(=O)[C@H](CC(C)C)NC(=O)[C@H](CCCNC(=N)N)NC(=O)[C@H](CCC(N)=O)NC(=O)[C@@H](NC(=O)[C@H](C)NC(=O)[C@@H]1CSSC[C@H](NC(=O)[C@@H](N)CCCCNC(=O)CC[C@H](NC(=O)CC[C@H](NC(=O)CCCCCCCCCCCCCCCCCCC(=O)O)C(=O)O)C(=O)O)C(=O)N[C@@H](CC(N)=O)C(=O)N[C@@H]([C@@H](C)O)C(=O)N[C@@H](C)C(=O)N[C@@H]([C@@H](C)O)C(=O)N1)[C@@H](C)O)C(=O)N1CCC[C@H]1C(=O)N[C@@H](CO)C(=O)N[C@@H](CO)C(=O)N[C@H](C(=O)N[C@@H](CC(N)=O)C(=O)N[C@H](C(=O)NCC(=O)N1CCC[C@H]1C(=O)N[C@@H](CCC(=O)O)C(=O)N[C@H](C(=O)N[C@@H](Cc1ccc(O)cc1)C(N)=O)[C@@H](C)O)C(C)C)[C@@H](C)O, not restated for each compound; also called compound 120)",868,45.3,140,0.161
"K([γGlu-γGlu-C20 diacid])CNTATCATQRLAEFLRHSSPNFGAIPSSTNVGHETY-NH2 (disulfide 2-7; N-terminus assumed; SMILES CC[C@H](C)[C@H](NC(=O)[C@H](C)NC(=O)CNC(=O)[C@H](Cc1ccccc1)NC(=O)[C@H](CC(N)=O)NC(=O)[C@@H]1CCCN1C(=O)[C@H](CO)NC(=O)[C@H](CO)NC(=O)[C@H](Cc1c[nH]cn1)NC(=O)[C@H](CCCNC(=N)N)NC(=O)[C@H](CC(C)C)NC(=O)[C@H](Cc1ccccc1)NC(=O)[C@H](CCC(=O)O)NC(=O)[C@H](C)NC(=O)[C@H](CC(C)C)NC(=O)[C@H](CCCNC(=N)N)NC(=O)[C@H](CCC(N)=O)NC(=O)[C@@H](NC(=O)[C@H](C)NC(=O)[C@@H]1CSSC[C@H](NC(=O)[C@@H](N)CCCCNC(=O)CC[C@H](NC(=O)CC[C@H](NC(=O)CCCCCCCCCCCCCCCCCCC(=O)O)C(=O)O)C(=O)O)C(=O)N[C@@H](CC(N)=O)C(=O)N[C@@H]([C@@H](C)O)C(=O)N[C@@H](C)C(=O)N[C@@H]([C@@H](C)O)C(=O)N1)[C@@H](C)O)C(=O)N1CCC[C@H]1C(=O)N[C@@H](CO)C(=O)N[C@@H](CO)C(=O)N[C@H](C(=O)N[C@@H](CC(N)=O)C(=O)N[C@H](C(=O)NCC(=O)N[C@@H](Cc1c[nH]cn1)C(=O)N[C@@H](CCC(=O)O)C(=O)N[C@H](C(=O)N[C@@H](Cc1ccc(O)cc1)C(N)=O)[C@@H](C)O)C(C)C)[C@@H](C)O, not restated for each compound)",159,29.1,498,3.14
"K([γGlu-γGlu-C20 diacid])CNTATCATQRLAEFLRHSSPNFGAIPSSTNVGPHTY-NH2 (disulfide 2-7 (inferred), not restated for each compound)",73,27.3,21,0.288
